Publication PMC2587052 (Nature structural & molecular biology, 2008)

Molecular target: SNARE complex reconstituted and anchored on supported phospholipid bilayers (rat | human, UniProt P32851;P60880-2;P63045)

Binder	EC50
synaptotagmin-1 C2AB fragment (residues 140-421), wild type (domain or fragment) EKLGKLQYSLDYDFQNNQLLVGIIQAAELPALDMGGTSDPYVKVFLLPDKKKKFETKVHRKTLNPVFNEQFTFKVPYSELGGKTLVMAVYDFDRFSKHDIIGEFKVPMNTVDFGHVTEEWRDLQSAEKEEQEKLGDICFSLRYVPTAGKLTVVILEAKNLKKMDVGGLSDPYVKIHLMQNGKRLKKKKTTIKKNTLNPYYNESFSFEVPFEQIQKVQVVVTVLDYDKIGKNDAIGKVFVGYNSTGAELRHWSDMLANPRRPIAQWHTLQVEEEVDAMLAVKK	12 nM
synaptotagmin-1 C2AB fragment (residues 140-421) R398Q,R399Q mutant (domain or fragment) EKLGKLQYSLDYDFQNNQLLVGIIQAAELPALDMGGTSDPYVKVFLLPDKKKKFETKVHRKTLNPVFNEQFTFKVPYSELGGKTLVMAVYDFDRFSKHDIIGEFKVPMNTVDFGHVTEEWRDLQSAEKEEQEKLGDICFSLRYVPTAGKLTVVILEAKNLKKMDVGGLSDPYVKIHLMQNGKRLKKKKTTIKKNTLNPYYNESFSFEVPFEQIQKVQVVVTVLDYDKIGKNDAIGKVFVGYNSTGAELRHWSDMLANPQQPIAQWHTLQVEEEVDAMLAVKK	12 nM
